Patent US20050287636

Sequence of proapoA-I-D157K (chain, as listed by the source D157K): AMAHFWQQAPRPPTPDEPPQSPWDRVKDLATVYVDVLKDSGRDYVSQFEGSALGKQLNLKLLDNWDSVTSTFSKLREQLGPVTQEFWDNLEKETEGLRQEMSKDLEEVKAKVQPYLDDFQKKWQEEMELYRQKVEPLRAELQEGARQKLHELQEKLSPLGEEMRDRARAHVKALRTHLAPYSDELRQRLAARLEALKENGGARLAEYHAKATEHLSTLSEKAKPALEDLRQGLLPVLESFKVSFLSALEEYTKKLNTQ
Sequence of wild-type (WT) proapoA-I (chain, as listed by the source): as the sequence (chain, as listed by the source D157K) above, with K172D counted along it
Sequence of proapoA-I-A158E (chain, as listed by the source A158E): as the sequence (chain, as listed by the source D157K) above, with K172D, A173E counted along it
Sequence of proapoA-I-A154E (chain, as listed by the source A154E): as the sequence (chain, as listed by the source D157K) above, with A169E, K172D counted along it
Sequence of proapoA-I-V156K (chain, as listed by the source V156K): as the sequence (chain, as listed by the source D157K) above, with V171K, K172D counted along it
Sequence of proapoA-I-H155E (chain, as listed by the source H155E): as the sequence (chain, as listed by the source D157K) above, with H170E, K172D counted along it

B1: LCAT (lecitin:cholesterol acyltransferase) (protein)
chain: FWLLNVLFPPHTTPKAELSNHTRPVILVPGCLGNQLEAKLDKPDVVNWMCYRKTEDFFTIWLDLNMFLPLGVDCWIDNTRVVYNRSSGLVSNAPGVQIRVPGFGKTYSVEYLDSSKLAGYLHTLVQNLVNNGYVRDETVRAAPYDWRLEPGQQEEYYRKLAGLVEEMHAAYGKPVFLIGHSLGCLHLLYFLLRQPQAWKDRFIDGFISLGAPWGGSIKPMLVLASGDNQGIPIMSSIKLKEEQRITTTSPWMFPSRMAWPEDHVFISTPSFNYTGRDFQRFFADLHFEEGWYMWLQSRDLLAGLPAPGVEVYCLYGVGLPTPRTYIYDHGFPYTDPVGVLYEDGDDTVATRSTELCGLWQGRQPQPVHLLPLHGIQHLNMVFSNLTLEHINAILLGAYRQGPPASPTASPEPPPPE
- Apparent Vmax (LCAT activation by POPC-rHDL) (proapoA-I-A154E): 3.5
- Apparent Vmax (LCAT activation by POPC-rHDL) (proapoA-I-A158E): 0.5
- Apparent Vmax (LCAT activation by POPC-rHDL) (proapoA-I-D157K): 1.8
- Apparent Vmax (LCAT activation by POPC-rHDL) (proapoA-I-H155E): 2.6
- Apparent Vmax (LCAT activation by POPC-rHDL) (proapoA-I-V156K): 0.3
- Apparent Vmax (LCAT activation by POPC-rHDL) (wild-type (WT) proapoA-I): 3.3
